Experimental data as given in the DeepSol protein solubility set.

Assay: soluble on expression in E. coli; label from the status in PepcDB or PDB records

Sequence	soluble on expression in E. coli
MSLTNSDWMPTASISQLKQRATLLRQIREFFAERNVLEVETPAMSHATVTDIHLHTFKTEFVGPGYAKGSALHLMTSPEFHMKRLLAAGSGCIYQLGKAFRNEENGRYHNPEFTMLEWYRIGFDHHALMDEMDALLQLVLRCGSAERMTYQEAFLNVLGVCPLEEEMRELKQVAATLGLSDIAEPEEDRDTLLQLLFSIGIEPKIGQITPAFVYDFPASQAALAKINPADPRVADRFEVYFKGIELANGFHELDNPAEQLARFKADNAKRLEMGLTEQPIDYHLIAALEAGLPECAGVALGIDRLIMLALGEDHIDKVTAFPFPRAEGHHHHHH	soluble
MSLTPIEAMKLAAGEIAGEKSLKTLAEVVDILSQEQDVTKRFGQKGLGQRNLGRAVQLLVESSETNEGRCMVAYDVFKSLERIVLDYVPDQNDRAKYLEDLKIAKGLYRERIMTEMFNAYMDEPYAVKKDVMNYVNMIIGIDAESLGPDRMWKYKDPQTGELKALKIDERYVKNVEDRLGLKTDEQRESFRTSIRKIYGQKISVDSTYDFMDNLELVKAVTDVRLKSDIAGAGSLIGALANRTNEENQKLYDRMVDTMLKKLGYCRTCAQKTIEYFCTQEDEGHHHHHH	soluble
MSLTQNAVEKTPVTMLGLGAMGTALARTWLAAGHRLTVWNRTPARAAALAAEGARVADSAAEAVAANTLVIVCLLDDSSVDEVLAGIDLADTDLVNLTTSTPAQARARAEWANERGARYLDGGIMAVPPMIGVPEAGSYVFCSGSRELFERHQETLGIPAGTTYVGMDAGFAALHDMALLSAMYGMFAGVAHAFALIHKEDIDPTSLAPMLADWLVAMAPAVHQTADHLRSGDYTKGVVSTLAMQVAGTPTFLSTAEQQGVSPELLSPYFELMRRRLAEGSGEEDLTGVINLLVHEGHHHHHH	not soluble
MSLTRICIVGAGAVGGYLGARLALAGEAVNVLARGATLQALQTAGLRLTEDGATHTLPVRATHDAVALGEQDVVIVAVKAPALESVAAAIAPLIGPGTCVVVAMNGVPWWFFDRPGPLQGQRLQAVDPHGRIAQAIPTRHVLGCVVHLTSATASPGHIRHGNGRRLILGEPAGGASPRLASIAALFGRAGLQAECSEAIQRDIWFKLWGNMTMNPVSVLTGATCDRILDDPLVSAFCLAVMAEAKAIGARIGCPIEQSGEARSAVTRQLGAFKTSMLQDAEAGRGPLEIDALVASVREIGRHVGVPTPQIDTLLGLVRLHAQTRGLYEGHHHHHH	soluble
MSLTRRSDTSLRAALIIQNWYRGYKARLKARQHYALTIFQSIEYADEQGQMQLSTFFSFMLENYTHIHKEELELRNQSLESEQDMRDRWDYVDSIDVPDSYNGPRLQFPLTCTDIDLLLEAFKEQQILHAHYVLEVLFETKKVLKQMPNFTHIQTSPSKEVTICGDLHGKLDDLFLIFYKNGLPSERNPYVFNGDFVDRGKNSIEILMILCVSFLVYPNDLHLNRGNHEDFMMNLRYGFTKEILHKYKLHGKRILQILEEFYAWLPIGTIVDNEILVIHGGISETTDLNLLHRVERNKMKSVLIPPTETNRDHDTDSKHNKVGVTFNAHGRIKTNGSPTEHLTEHEWEQIIDILWSDPRGKNGCFPNTCRGGGCYFGPDVTSKILNKYQLKMLIRSHECKPEGYEICHDGKVVTIFSASNYYEEGSNRGAYIKLCSGTTPRFFQYQVTKATCFQPLREGHHHHHH	not soluble
MSLTTFLFRNGALLDPDHPDLLQGFEILIEDGFIREVSDKPIKSSNAHVIDVKGKTIMPGLIDLHVHVVAIEFNLPRVATLPNVLVTLRAVPIMRAMLRRGFTTVRDAGGAGYPFKQAVESGLVEGPRLFVSGRALSQTGGHADPRARSDYMPPDSPCGCCVRVGALGRVADGVDEVRRAVREELQMGADQIKIMASGGVASPTDPVGVFGYSEDEIRAIVAEAQGRGTYVLAHAYTPAAIARAVRCGVRTIEHGNLIDDETARLVAEHGAYVVPTLVTYDALASEGEKYGLPPESIAKIADVHGAGLHSIEIMKRAGVKMGFGTDLLGEAQRLQSDEFRILAEVLSPAEVIASATIVSAEVLGMQDKLGRIVPGAHADVLVVDGNPLKSVDCLLGQGEHIPLVMKDGRLFVNELEGHEGHHHHHH	soluble
MSLTVSNNFKMIYIASCGEGINAFHLVESTLVQFPDSDITVVKVPHIRTESQVDHLLDRVKDVESLIAHTIVEPNLRQYLVTKAEEHKIVTIDLMGQVLNKIETFLSIRPLGKPGLYRETHQVDLKQVTAIDFALAHDDGLRPESLDEAEIILVGLSRAGKTPLSMYMGVMGWKVANIPYVPGVPMPQTLDEVDRRRVIALNINIEQLLSHRKMRQESLGTSDMHAYSRRQEVEVEVQTAQKYYITKGFSMIDVSNKPIETSAEEIAEMITRRFKAQAHEGHHHHHH	not soluble
MSLTVVLIVDDHHLIRAGAKNLLEGAFSGMRVEGAETVSDALAFLEADNTVDLILLDVNLPDAEAIDGLVRLKRFDPSNAVALISGETDHELIRAALEAGADGFIPKSADPQVLIHAVSLILEGEIFLPRSYLQGGRMAEVATPLDSSERPEQNLTPRQRDVFELMCKGLANKEIARLLDLSESTVKSHVSAIFKQIGTTSRSKTIAIFRQEGVALPSASEDEGHHHHHH	soluble
MSLTYQFMQPYTFKNGVTLKNRMVMSPTTTMSSFYDGHVTNDEIKFYDVRAGGPGMIIGEVANVIASGKGFEGELSIADDGDIDGLSRLANAMKRGGTKAILQIFHAGRKSNDSILRGEQPVSASAVKAVFPPDSQTPRELTAAEIDEIIVAFGEATRRAIAAGFDGVELHGANTYLLQQFFSPNSNRRTDKWGGDRDARMGFAKAVIASSQQAIDTYADRPFLLGYRISPEEIETPGIRLADSLAFVDMLGDSTVDYVHTSMGSAHRTSLNDKTDHEPILKQLVQQLAGRKPLIGVGSVEKPADAEAVLEMGADLVAMGREFIREPQWVEKIVDGDEASIRYQISPSELDELAIPRAMQDYLKGAFYSVMHFTTDPSVAVDYQNEGHHHHHH	soluble
MSLVMSDTLNSLQLGERPEGRTLLTASWVVGHKDGSHRLLKNGEVVFENGEILFVGHGFPGEVARRIDFGNALVSPGLIDLDALSDLDTTILGIDHHPGWAKGRVWPRSYVEAGPYEMYSAEELAFQKRFAFGQLLLNGITTAAPIASLFYRAWGETVAEFEAAADAAGELGLRVYLSPAFRSGGMVLEEPGRMFPVFDEERGFQGLKEAIAFIEKQSGRHGDLVRGMLAPDRVETSTLGLIERTDAAARELGCKFRLHMAQGVMEVDTVRKLHGSTAPVWLAKAGLLSERLIAPHATNATEEDLALYAENGVSIVHCPLVSSRGGSTLSSFSSCRKRGINIAMGTDTAPADMFMNLLVGLITCRINDGAPDQIRCADLFDAATLGGARALGRSDLGHLSSGARADIAVFDLDDAVMAPSVDPITTLVTGGSGKVTRAVFVDGRLSMRERQVAHIDMRRAREQAQAQFDRLIAKYPERSWANPPVSEIFPPSYQVEVAQHGEGHHHHHH	soluble
MSLWPQMQYRQLQLAREKLLERLARKRNSTVITLIHRQESIGLFGIPVYRFISIEDSEEVLRAIRMAPKDKPIDLIIHTPGGLVLAATQIAKALKDHPAETRVIVPHYAMSGGTLIALAADKIIMDPHAVLGPVDPQLGQYPAPSIVRAVEKKGVDKVDDQTLILADVAEKAIRQVRDFIFNLLKDKYGEEKAKELAQVLTEGRWTHDYPITVEEAKKLGLNVSTDVPEEVYALMELYKQPIRQRGTVEFVPYPMKQEGKHEGHHHHHH	soluble
MSLYCNLLKPIKIGNLELKNRVSFAPTSMGLKLEEKIKKFSDIAKSGVALITLGDVSIRPSFHKVAISLSDEDGVMKYKKIVDEIHNSGAKVSAQLFCSDYDVNLIKDTMKMGITSHDEIKKIMNDGVKDYITNMTKGEIKNIINLFKVTALNAKKAGFDMIQIHGDRLVGSFSSSIFNNRNDEYGGTCDNRSRFASEIISSIRDEVKDIPIDYKFAIRQENPHYGNAGVLLSEVEYFVKKFESLGVNSFHVTLANHSKLEDTIPTNNHPYFKDEGCFLYLADEVKKHTNLPVCGVGKLSSPDFIESIISNNRVDMVSMSRQLLADSNWLQKVKDGRVDEIKKCCYCNKKCADALQTRSQFGCILDEGHHHHHH	soluble
MSLYLITNRKLCSEERYLEVIKESILSGVENIIIREKDLEYQELRKLYMKIKTKINCIDFQEQISDESLKTNINQKECRNKFKVNFIINSNIEFFEKVDCQGIHLPFKLFLNLIENKYNFNENKILGLSLHKVEEVDYLEKLIRNQNIKIDYITLSHIYETKCKEGLNPKGIELLKEAKKITDIKIIALGGILPSNVKETLKYCDDFAIMSTIMRSKDIKKTISNYNEKLNEGHHHHHH	not soluble
MSLYNKVLIIDDHPVLRFAVRVLMEKEGFEVIGETDNGIDGLKIAREKIPNLVVLDIGIPKLDGLEVIARLQSLGLPLRVLVLTGQPPSLFARRCLNSGAAGFVCKHENLHEVINAAKAVMAGYTYFPSTTLSEMRMGDNAKSDSTLISVLSNRELTVLQLLAQGMSNKDIADSMFLSNKTVSTYKTRLLQKLNATSLVELIDLAKRNNLAEGHHHHHH	not soluble
MSMEPTLQSILDQRSLRWIFVGGKGGVGKTTTSCSLAIQLAKVRRSVLLLSTDPAHNLSDAFSQKFGKEARLVEGFDNLYAMEIDPNGSMQDLLAGQTGDGDAGMGGVGVMQDLAYAIPGIDEAMSFAEVLKQVNSLSYETIVFDTAPTGHTLRFLQFPTVLEKALAKVSQLSGQYGSLLNGILGGSGTLPNGQTLSDVMEKLDSLRVTISEVNAQFKDERLTTFVCVCIPEFLSLYETERMIQELANYGIDTHCIVVNQLLFPKPGSDCEQCTARRRMQKKYLDQIEELYDEEFNVVKMPLLVEEVRGKERLEKFSEMLIKPFVPPEHHHHHH	soluble
MSMLKPSGLKAPTKILKPGSTALKTPTAVVAPVEKTISSEKASSTPSSETQEEFVDDFRVGERVWVNGNKPGFIQFLGETQFAPGQWAGIVLDEPIGKNDGSVAGVRYFQCEPLKGIFTRPSKLTRKVQAEDEANGLQTTPASRATSPLCTSTASMVSSSPSTPSNIPQKPSQPAAKEPSATPPISNLTKTASESISNLSEAGSIKKGERELKIGDRVLVGGTKAGVVRFLGETDFAKGEWCGVELDEPLGKNDGAVAGTRYFQCQPKYGLFAPVHKVTKIGFPSTTPAKAKANAVRRVMATTSASLKRSPSASSLSSMSSVASSVSSRPSRTGLLTETSSRYARKISGTTALQEALKEKQQHIEQLLAERDLERAEVAKATSHVGEIEQELALARDGHDQHVLELEAKMDQLRTMVEAADREKVELLNQLEEEKRKVEDLQFRVEEESITKGDLETQTKLEHARIKELEQSLLFEKTKADKLQRELEDTRVATVSEKSRIMELEKDLALRVQEVAELRRRLESNKPAGDVDMSLSLLQEISSLQEKLEVTRTDHQREITSLKEHFGAREETHQKEIKALYTATEKLSKENESLKSKLEHANKENSDVIALWKSKLETAIASHQQAMEELKVSFSKGLGTETAEFAELKTQIEKMRLDYQHEIENLQNQQDSERAAHAKEMEALRAKLMKVIKEKENSLEAIRSKLDKAEDQHLVEMEDTLNKLQEAEIKKEKFAEASEEAVSVQRSMQETVNKLHQKEEQFNMLSSDLEKLRENLADMEAKFREKDEREEQLIKAKEKLENDIAEIMKMSGDNSSQLTKMNDELRLKERDVEELQLKLTKANENASFLQKSIEDMTVKAEQSQQEAAKKHEEEKKELERKLSDLEKKMETSHNQCQELKARYERATSETKTKHEEILQNLQKTLLDTEDKLKGAREENSGLLQELEELRKQAEKAKAAQTAEDAMQIMEQMTKEKTETLASLEDTKQTNAKLQNELDTLKENNLKNVEELNKSKELLTVENQKMEEFRKEIETLKQAAAQKSQQLSALQEENVKLAEELGRSRDEVTSHQKLEEERSVLNNQLLEMKKRESKFIKDADEEKASLQKSISITSALLTEKDAELEKLRNEVTVLRGENASAKSLHSVVQTLESDKVKLELKVKNLELQLKENKRQLSSSSGNTDTQADEDERAQESQQMIDFLNSVIVDLQRKNQDLKMKVEMMSEAALNGNGDDLNNYDSDDQEKQSKKKPRLFCDICDCFDLHDTEDCPTQAQMSEDPPHSTHHGSRGEERPYCEICEMFGHWATNCNDDETF	soluble
